The values below come from the nanobody polyreactivity screen of Harvey et al. (2022).

A short description of this series: yeast display, Sf9 membrane polyspecificity reagent, FACS + sequencing; frameworks hold sequencing errors. In a few lines: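 Nanobodies from a synthetic yeast display library (Saccharomyces cerevisiae BJ5465), induced 36–48 hours with galactose, were stained 1 hour at 4 °C with 10% biotinylated, detergent-solubilized Sf9 membrane reagent, enriched on streptavidin microbeads, then FACS-sorted. Anti-HA (expression) and streptavidin (reagent binding) fluorescence set low and high (top ~1%) gates. Polyreactivity labels come from the gate of origin. Genes were colony-PCR amplified, MiSeq 2 × 250 sequenced and filtered by CDR length.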
Turning to “QVQLVESGGGLVQAGGSLRLSCAASGNIFKYYAMGWYRQAPGKERELVAAISWGGSRTYYADSVKGRFTISRDNAKNTVYFQMNILKPEDSAVYYCAAAPRYSWTSVPRYDYWGLGTQVTVSS”, the “polyreactivity (PSR sort gate)” value is listed as “high polyreactivity”. “QVQLVESGGGLVQAGGSLRLSCAASGNIFLFYVMGWYRQAPVKERELVAAITLSGTNTYYADSVKGRFTISRDNAKNNVYLQMNSLKPEDTAVYYCNADWWSDGYDYWGQRTQVTVSS”: the “polyreactivity (PSR sort gate)” value is reported as “low polyreactivity”. In the case of “QVQLVESGGGLVQAGGSLRLSCAASGNIFLRYAMGWYRQAPGKERELVASITRSGASTYYAVSVKGRFTISRDNAKNTVYLQMNSLKPEDTAVYYCAASYYFRYYRGGYWGQGTQVTVSS” it was “high polyreactivity”; in that of “QVQLVESGGGLVQAGGSLRLSCAASGNIFLYYAMGWSRQAPGKERELVADIDSSGASTYYADSVKGRFTISRDNAKNNVYLQMNSLKPEDTAVYYCAAEFHWWYAGYDYGYWGQGTQVTVSS”, “low polyreactivity”; in that of “QVQLVESGGGLVQAGGSLRLSCAASGNIFLYYAMGWYRPAPGKERELVADIDSSGAATYYADSVKGRFTISRDYAKNTVYLQMNSLKPEDTAVYYCAAEFHWWYAGYDYGYWGQGTQVTVSS”, “low polyreactivity”.

As for “QVQLVESGGGLVQAGGSLRLSCAASGNIFLYYTMGWYRQAPGKERELVAGITSGGSTYYADSVKGRFTISRDNAKNTVSLQMNSLKPEDTAVYYCAATYYPNFYRYYYWGQGTQVTVSS”, the “polyreactivity (PSR sort gate)” value was “low polyreactivity”. Consider “QVQLVESGGGLVQAGGSLRLSCAASGNIFNDNAKGLYRKAPVKERELVAAISSGGSTNYADSVKGRFTISRDYAKNTVYLQMNSLKPEDTAVYYCAAELTLIYWWSLDYWGQGTQVTVSS”, for which the “polyreactivity (PSR sort gate)” value is recorded as “low polyreactivity”. Then “QVQLVESGGGLVQAGGSLRLSCAASGNIFPGYAMGWYRQAPGKERELVAGISGSGGRTYYADSVKGRFTISRDNAKNTVYLQMNSLKTEDTAVYYCAAAFKYYYRFEYDYWGQGTQVTVSS”, with “low polyreactivity”; and “QVQLVESGGGLVQAGGSLRLSCAASGNIFRNNAMGWYRQAPGKERELVAAISYSGGRTYYADSVKGRFTISRDNAKNTVYLQMNSLKPEDTAVYYCAVTYGRNADDYEYWGQGTQVTVSS”, with “high polyreactivity”; and “QVQLVESGGGLVQAGGSLRLSCAASGNIFRYNAMGWYRQAPGKERELVAAISSGGSTYYADSVKGRFTISRDNAKNTVYLQMNSLKPEDTAVYYCNRRRWLWQTARGDYWGQGTQVTVSS”, with “high polyreactivity”. Regarding “QVQLVESGGGLVQAGGSLRLSCAASGNIFSAYALGWYRQAPGKERELVATITSGGITYYADSVKGRFTISRDNAKNTVYLQMNSLNPEDTAVYYCNADHHGQAEYGYWGQGTQVTVSS”, the “polyreactivity (PSR sort gate)” value is on record as “low polyreactivity”. Then “QVQLVESGGGLVQAGGSLRLSCAASGNIFSRYAMGWYRQAPGKERELVAAISKSGGSTYYADSVKGRFTISRDNAKNTVYLQMNSLKPEDTAVYYCAAYTFFLGYPEFDYWGQGTQVTVSS”, with “high polyreactivity”; and “QVQLVESGGGLVQAGGSLRLSCAASGNIFSSYAMGWYRQAPGKERELVARITTSAGRTYYADSVKGRFTISRDNAKNTVYLQMNSLKREETAVYSCAARGQSAYSIWRYYYWGQGTQVTVSS”, with “high polyreactivity”; and “QVQLVESGGGLVQAGGSLRLSCAASGNIFSVYAMGWYRQAPGKERELVAAISSSGGRTYYADSVKGRFTISRDNAKNTVYLQMNSLKPEDTAVYYCNTAGYDYYSTQAYDYWGQGTQVTVSS”, with “high polyreactivity”. Take “QVQLVESGGGLVQAGGSLRLSCAASGNIFSWYAMGWYRQAPGKERELVAAITSGGRTYYADSVKGRFTISRDNAKNTVYLQMNSLKPEDTAVYYCNAVSRLYNRRDYWGQGTQVTVSS”: the “polyreactivity (PSR sort gate)” value was “high polyreactivity”. Then “QVQLVESGGGLVQAGGSLRLSCAASGNIFSYYAMGWYRQAPGKERELVAAISSGGSTYYADSVKGRFTISRDNAKNTVYLQMNSLKPEDTAVYYCATSYFSYFFYEYYSWGQGTQVTVSS”, with “low polyreactivity”.

Regarding “QVQLVESGGGLVQAGGSLRLSCAASGNIFTKYAMGWYRQAPGKERELVAAITWSGGSTYYADSVKGRFTISRDNAKNTVDLQMNILKPEDTAVYYCATAHVFRRDKPYDYWGQGTQVTVSS”, the “polyreactivity (PSR sort gate)” value is recorded as “high polyreactivity”. Then “QVQLVESGGGLVQAGGSLRLSCAASGNIFVAYAMGWYRQAPGKERELVAAITSGGRTYADSVKGRFTISSDNAKNTVYLQMNSLKPEDTAVYYCNADPYYVYLGYYDRYYSGYGYWGLGTQVTVSS”, with “low polyreactivity”. In the case of “QVQLVESGGGLVQAGGSLRLSCAASGNIFVAYAMGWYRQAPGKERELVAVISNGGRTYYADSVKGRFTISRDKAKNNVYLQMNSLKPADTAVSYCATVAHASYGWHNYWGQGTQVTVSS” it was “high polyreactivity”; in that of “QVQLVESGGGLVQAGGSLRLSCAASGNIFVDNAMGWYRQAPGKERELVAAITFSGDDTYYADSVKGRFTISRDNAKNTVYLQMNSLKPEDTAVYYCNAVPTLYWWYDYWGQGTQVTVSS”, “low polyreactivity”. Turning to “QVQLVESGGGLVQAGGSLRLSCAASGNIFVINAMGWYRQAPGKERELVAAISWSTANTYYADSVKGRFTISRDNAKNTVYLQLNSLKPEDTAVYYCAAVFRYYTYSGAVRYYYWGQGTQVTVSS”, the “polyreactivity (PSR sort gate)” value is “high polyreactivity”.

Regarding “QVQLVESGGGLVQAGGSLRLSCAASGNIFVRYAMGWYRQAPGKEREFVAAISSSGGSTRYADSVKGRFTISRDNAKNTVYLQMNSLKPEDTAVYYCAATRVARHGSPMYYWGQGTQVTVSS”, the “polyreactivity (PSR sort gate)” value is on record as “high polyreactivity”. Then “QVQLVESGGGLVQAGGSLRLSCAASGNIFVSNVMGWYRQAPGKERELVAAISSGGRTYYADSVKGRFTISRDNAKNTVYLQMNSLKPEDTAVYYCAASYKSKYLGGGEYWGQGTQVTVSS”, with “high polyreactivity”; and “QVQLVESGGGLVQAGGSLRLSCAASGNIFVYNAMGWYRQAPGKEREFVAAIDSGGSTYYADSVKGRFTISRDNAKNTVYLQMNSLKPEDTAVYYCARAVVQSRGPPRYKTPYDYWGQGTQVTVSS”, with “low polyreactivity”; and “QVQLVESGGGLVQAGGSLRLSCAASGNIFWWNAMGWYRQAPGKERELVAAITSDSTTYYADSVKGRFTISRDNAKNTVYFQMNCLKPEDTAVYYCAAYSYGGQGVDYGYWGQGTQVSVSS”, with “low polyreactivity”. Then “QVQLVESGGGLVQAGGSLRLSCAASGNIFYGYAMGWYRQAPGKERELVAAISRAGRTYYADSVKGRFTISRDNAKNTVYLQMNSLKPEDTAVYYCAADFYYASYVRYNYWGQGTQVTVSS”, with “low polyreactivity”; and “QVQLVESGGGLVQAGGSLRLSCAASGNIFYYYAMGWYRQAPGKERELVADITSGGDTDYADSVKGRFTISRDNAKNTVYLQMNSLKPEDTAVYYCNAQYYFHVTYDYWGQGTQVTVSS”, with “low polyreactivity”. In the case of “QVQLVESGGGLVQAGGSLRLSCAASGNIIQYYAMGWYRQAPGKERELVADIDSSGASKYYADSVKGRFTISRDNAKNTVYLQMNSLKPEVTAVYYCAAEFHWWYAGYDYGYWGQGTQVTVSS”, the “polyreactivity (PSR sort gate)” value is on record as “low polyreactivity”.

Take “QVQLVESGGGLVQAGGSLRLSCAASGNIIYQNAKGLYRQAPGKERELVAAITGRGSSTYYADSVKGRFTISRDNAKNTVYLQMNSMKPEDTAVYYCAADTTPYDGYYGHGYWGQGTQVTVSS”: the “polyreactivity (PSR sort gate)” value is given as “low polyreactivity”.

Regarding “QVQLVESGGGLVQAGGSLRLSCAASGNILFNNSMGWYRQAPGKERELVAAISRSAGSTYYADSVKGSFTISRDNEKNTVYLQMNRLKPEDTAVYYCAAQYFRRSGYWGQGTQVTVSS”, the “polyreactivity (PSR sort gate)” value is reported as “high polyreactivity”. With “QVQLVESGGGLVQAGGSLRLSCAASGNILLFNAMGWYRQAPGKERELVATINQSGGRTYYADSVKGRFTISRDNAKNTVYLQMNSLKPEDTAVYYCAATRRYPPYFHHYDYWGQGTQVTVSS”, the “polyreactivity (PSR sort gate)” value is “low polyreactivity”.

As to “QVQLVESGGGLVQAGGSLRLSCAASGNILSVNAMGWYRQAPGKERELVASIRSSTASTYYADSVKGRFTISRDNAKNTVYLQMNSLKPEDTAVYYCAARARYNRYDYWGQGTQVTVSS”, the “polyreactivity (PSR sort gate)” value is on record as “high polyreactivity”. Regarding “QVQLVESGGGLVQAGGSLRLSCAASGNIYAYYAMGWYRQAPGKEWELVAAITDSGGNTFYADSVKGRFTISRDNAKNTVYLQMNSLKPVDTAVYYCAADPDGWGFVYPRYDYWGQGTQVTVSS”, the “polyreactivity (PSR sort gate)” value was “low polyreactivity”.

On to “QVQLVESGGGLVQAGGSLRLSCAASGNIYPYYAIGWYRQAPGKERELVAAINAGGGNTYYADSVKGRFTISRDNAKNTVYLQMNSLKPEDTAVYYCAARRVRIYYGSVVWYKYDYWGQGTQVTVSS”, for which the “polyreactivity (PSR sort gate)” value was “high polyreactivity”. Turning to “QVQLVESGGGLVQAGGSLRLSCAASGNMFYANAMGWYRQAPGKERELVAAISGSVCSTYADSVKGRFTISRDNAKNTVYLQMNSLKPEDTAVYYCNASVLDAIFYKSVGYDYWGQGTQVTVSS”, the “polyreactivity (PSR sort gate)” value is reported as “low polyreactivity”. Then “QVQLVESGGGLVQAGGSLRLSCAASGNNFLLYAMVWYRQAPGKEREFVAAITWIAGSTYYADSVKGRFTISRDNAKNTVYLQMNSLKPEDTAVYYCAADSYWYDMDYWGQGTQVTVSS”, with “high polyreactivity”; and “QVQLVESGGGLVQAGGSLRLSCAASGNNFRRYAMGWSRQAPGKERELVAAITWRGGNTYYADSVKGRFTISRDIAKNTVYLQRNSLKPEDTAVYYCNRVYRQRLGRDYWGQGTQVTVSS”, with “high polyreactivity”. In the case of “QVQLVESGGGLVQAGGSLRLSCAASGNTFAFNAMGWYRQATGKEREFVAAISYSGVSTYYADSVKGRFTISRDNAKNTVYLQMNSLKPEDTAVYYCAARYGWYKYWYDYWGQGTQVTVSS”, the “polyreactivity (PSR sort gate)” value is “high polyreactivity”. Turning to “QVQLVESGGGLVQAGGSLRLSCAASGNTFAYYAMGWYRQAPGKERELVAAISGSGGRTYYADSVKGRFTISRDNAKNTVYFQMNILKPEDTAVYYCNARPAGGLGYGYWGQGTQVTVSS”, the “polyreactivity (PSR sort gate)” value was “high polyreactivity”.

For the sequence “QVQLVESGGGLVQAGGSLRLSCAASGNTFDSYVMGWYRQAPGKERELVAAISYRGGSTYYADSVKGRFTISRDNAKNTVYLQMNSLKPEDSAVYFCAADYFYYVYSYWYDSWGQGTQVTVSS”, the “polyreactivity (PSR sort gate)” value is recorded as “high polyreactivity”. In the case of “QVQLVESGGGLVQAGGSLRLSCAASGNTFGAYAMGWYRQAPGKERELVAAITWSGGRTYYADSVKGRFTISRDNAKNTVYLQMNSLKPEDTAVYYCAADYGYYRGGVRFGYWGQGTQVTVSS” it was “high polyreactivity”.
